The results in this text go back to PMC9463131, “SLITRK1-mediated noradrenergic projection suppression in the neonatal prefrontal cortex” (Communications Biology, 2022).

Positions count from the first letter of the chain named.

Assay [1] concerns the target T1, SLITRK1-S330A-Fc (human, UniProt Q96PX8 18-616, S330A).
T1 sequence: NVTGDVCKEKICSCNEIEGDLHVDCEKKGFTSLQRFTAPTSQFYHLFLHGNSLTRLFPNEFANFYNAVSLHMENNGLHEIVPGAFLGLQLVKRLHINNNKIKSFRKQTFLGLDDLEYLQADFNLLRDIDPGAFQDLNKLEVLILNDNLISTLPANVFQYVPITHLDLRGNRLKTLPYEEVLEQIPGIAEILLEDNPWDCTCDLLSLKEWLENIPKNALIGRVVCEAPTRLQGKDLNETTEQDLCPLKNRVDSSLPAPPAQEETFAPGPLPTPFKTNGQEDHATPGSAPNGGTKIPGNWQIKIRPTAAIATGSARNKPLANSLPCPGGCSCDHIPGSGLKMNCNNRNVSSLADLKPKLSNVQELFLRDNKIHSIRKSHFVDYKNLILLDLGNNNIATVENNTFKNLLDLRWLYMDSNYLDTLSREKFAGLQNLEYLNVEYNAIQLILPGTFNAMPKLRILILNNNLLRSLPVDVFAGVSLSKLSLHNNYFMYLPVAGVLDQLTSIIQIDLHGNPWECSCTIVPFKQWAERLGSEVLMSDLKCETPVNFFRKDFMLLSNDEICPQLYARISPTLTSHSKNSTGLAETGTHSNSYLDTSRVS
Kind of assay: BLI. Background: Biolayer interferometry detects binding as a change in optical thickness at a sensor tip.

Assay [2] concerns the target T2, SLITRK1-A444S-Fc (human, UniProt Q96PX8 18-616, A444S).
T2 sequence: T1 sequence with A313S, A427S
The experiment in a line: BLI.

The target of assay [3] is T1, SLITRK1-S330A-Fc. The experiment in a line: BLI. The source holds these as a separate data set.
Assay [4] addresses T2, SLITRK1-A444S-Fc. Kind of assay: BLI. This is another data set of the same source.
Assay [5] concerns the target T3, SLITRK1-S330A-Fc (human, UniProt Q96PX8 18-616, S330A).
T3 construct: signal peptide in the construct; human SLITRK1 extracellular domain, amino acid number 1-616 in NP_443142, with the patient-derived variant S330A; S330A is a variant found in patients and controls (global MAF 0.002); made by site-directed mutagenesis; also called SLITRK1 ECD-Fc S330A
T3 sequence (looked up): T1 sequence
Kind of assay: quartz crystal microbalance; AffinixQ, 27 MHz; about 200 femtomoles SLITRK1 ECD-Fc (WT, S330A or A444S) immobilised through anti-human IgG Fc on the gold resonator; ECD-His6 proteins added at several concentrations; 50 mM Tris-HCl pH 7.6, 15 mM NaCl, 140 mM KCl, 0.5 mM MgCl2, 2 mM CaCl2; 25 ± 1 °C; KD = koff/kon. The settings on record: both partners purified.

Assay [6] deals with T4, SLITRK1-A444S-Fc (human, UniProt Q96PX8 18-616, A444S).
T4 construct: signal peptide in the construct; human SLITRK1 extracellular domain, amino acid number 1-616 in NP_443142, with the patient-derived variant A444S; A444S was found in 2 of 364 patients with bipolar disorder; made by site-directed mutagenesis; also called SLITRK1 ECD-Fc A444S
T4 sequence (looked up): T1 sequence with A313S, A427S
Described as above. The settings on record: both partners purified.

Assay [7] deals with T5, SLITRK1 ECD-immunoglobulin Fc domain-fusion protein (SLITRK1-WT-Fc) (human, UniProt Q96PX8 18-616).
T5 construct: signal peptide in the construct; human SLITRK1 extracellular domain, amino acid number 1-616 in NP_443142; also called SLITRK1 ECD-Fc; SLITRK1 ECD-Fc fusion protein
T5 sequence (looked up): T1 sequence with A313S
The description is as above. The settings on record: both partners purified.

B1: L1CAM ECD-His6 (777-NC-100, R&D Systems) (domain or fragment)
chain: IQIPEEYEGHHVMEPPVITEQSPRRLVVFPTDDISLKCEASGKPEVQFRWTRDGVHFKPKEELGVTVYQSPHSGSFTITGNNSNFAQRFQGIYRCFASNKLGTAMSHEIRLMAEGAPKWPKETVKPVEVEEGESVVLPCNPPPSAEPLRIYWMNSKILHIKQDERVTMGQNGNLYFANVLTSDNHSDYICHAHFPGTRTIIQKEPIDLRVKATNSMIDRKPRLLFPTNSSSHLVALQGQPLVLECIAEGFPTPTIKWLRPSGPMPADRVTYQNHNKTLQLLKVGEEDDGEYRCLAENSLGSARHAYYVTVEAAPYWLHKPQSHLYGPGETARLDCQVQGRPQPEVTWRINGIPVEELAKDQKYRIQRGALILSNVQPSDTMVTQCEARNRHGLLLANAYIYVVQLPAKILTADNQTYMAVQGSTAYLLCKAFGAPVPSVQWLDEDGTTVLQDERFFPYANGTLGIRDLQANDTGRYFCLAANDQNNVTIMANLKVKDATQITQGPRSTIEKKGSRVTFTCQASFDPSLQPSITWRGDGRDLQELGDSDKYFIEDGRLVIHSLDYSDQGNYSCVASTELDVVESRAQLLVVGSPGPVPRLVLSDLHLLTQSQVRVSWSPAEDHNAPIEKYDIEFEDKEMAPEKWYSLGKVPGNQTSTTLKLSPYVHYTFRVTAINKYGPGEPSPVSETVVTPEAAPEKNPVDVKGEGNETTNMVITWKPLRWMDWNAPQVQYRVQWRPQGTRGPWQEQIVSDPFLVVSNTSTFVPYEIKVQAVNSQGKGPEPQVTIGYSGEDYPQAIPELEGIEILNSSAVLVKWRPVDLAQVKGHLRGYNVTYWREGSQRKHSKRHIHKDHVVVPANTTSVILSGLRPYSSYHLEVQAFNGRGSGPASEFTFSTPEGVPGHPEALHLECQSNTSLLLRWQPPLSHNGVLTGYVLSYHPLDEGGKGQLSFNLRDPELRTHNLTDLSPHLRYRFQLQATTKEGPGEAIVREGGTMALSGISDFGNISATAGENYSVVSWVPKEGQCNFRFHILFKALGEEKGGASLSPQYVSYNQSSYTQWDLQPDTDYEIHLFKERMFRHQMAVKTNGTGRVRLPPAGFATE
For B1, the Kd – broadly, the equilibrium constant for the complex coming apart – with SLITRK1-S330A-Fc [1] stood at 5.83 nM; with SLITRK1-A444S-Fc [2], 4.69 nM. Also, the koff (usually the rate constant with which the complex falls apart) is 0.00084 s⁻¹ with SLITRK1-S330A-Fc [3] and 0.0008 s⁻¹ with SLITRK1-A444S-Fc [4].

B2: human Neurofascin ECD-His6 (8208-NF-050, R&D Systems) (domain or fragment)
chain: IEIPMDLTQPPTITKQSAKDHIVDPRDNILIECEAKGNPAPSFHWTRNSRFFNIAKDPRVSMRRRSGTLVIDFRSGGRPEEYEGEYQCFARNKFGTALSNRIRLQVSKSPLWPKENLDPVVVQEGAPLTLQCNPPPGLPSPVIFWMSSSMEPITQDKRVSQGHNGDLYFSNVMLQDMQTDYSCNARFHFTHTIQQKNPFTLKVLTNHPYNDSSLRNHPDMYSARGVAERTPSFMYPQGTASSQMVLRGMDLLLECIASGVPTPDIAWYKKGGDLPSDKAKFENFNKALRITNVSEEDSGEYFCLASNKMGSIRHTISVRVKAAPYWLDEPKNLILAPGEDGRLVCRANGNPKPTVQWMVNGEPLQSAPPNPNREVAGDTIIFRDTQISSRAVYQCNTSNEHGYLLANAFVSVLDVPPRMLSPRNQLIRVILYNRTRLDCPFFGSPIPTLRWFKNGQGSNLDGGNYHVYENGSLEIKMIRKEDQGIYTCVATNILGKAENQVRLEVKDPTRIYRMPEDQVARRGTTVQLECRVKHDPSLKLTVSWLKDDEPLYIGNRMKKEDDSLTIFGVAERDQGSYTCVASTELDQDLAKAYLTVLGRPDRPRDLELTDLAERSVRLTWIPGDANNSPITDYVVQFEEDQFQPGVWHDHSKYPGSVNSAVLRLSPYVNYQFRVIAINEVGSSHPSLPSERYRTSGAPPESNPGDVKGEGTRKNNMEITWTPMNATSAFGPNLRYIVKWRRRETREAWNNVTVWGSRYVVGQTPVYVPYEIRVQAENDFGKGPEPESVIGYSGEDYPRAAPTEVKVRVMNSTAISLQWNRVYSDTVQGQLREYRAYYWRESSLLKNLWVSQKRQQASFPGDRLRGVVSRLFPYSNYKLEMVVVNGRGDGPRSETKEFTTPEGVPSAPRRFRVRQPNLETINLEWDHPEHPNGIMIGYTLKYVAFNGTKVGKQIVENFSPNQTKFTVQRTDPVSRYRFTLSARTQVGSGEAVTEESPAPPNEAYTNNQADIATQGW
B2: the Kd in the assay with SLITRK1-S330A-Fc [5] worked out at 59.3 nM; with SLITRK1-A444S-Fc [6] it was 14.2 nM; in assay [7], 16.6 nM. The figures for the koff in the assay with SLITRK1-S330A-Fc [3] and in the assay with SLITRK1-A444S-Fc [4] were 0.00665 s⁻¹ and 0.00577 s⁻¹, respectively.
